According to patent US10772928B2, “Modulation and detection of a neuronal alternative splicing regulatory network for treatment and diagnosis of neurological disorders” (The Governing Council of the University of Toronto, priority 2014, dated 2020):

Target: T1, nSR100 (Mus musculus, UniProt Q8BKA3)
T1 construct: host or cells: mouse N2A cells
T1 sequence (Q8BKA3 1-608): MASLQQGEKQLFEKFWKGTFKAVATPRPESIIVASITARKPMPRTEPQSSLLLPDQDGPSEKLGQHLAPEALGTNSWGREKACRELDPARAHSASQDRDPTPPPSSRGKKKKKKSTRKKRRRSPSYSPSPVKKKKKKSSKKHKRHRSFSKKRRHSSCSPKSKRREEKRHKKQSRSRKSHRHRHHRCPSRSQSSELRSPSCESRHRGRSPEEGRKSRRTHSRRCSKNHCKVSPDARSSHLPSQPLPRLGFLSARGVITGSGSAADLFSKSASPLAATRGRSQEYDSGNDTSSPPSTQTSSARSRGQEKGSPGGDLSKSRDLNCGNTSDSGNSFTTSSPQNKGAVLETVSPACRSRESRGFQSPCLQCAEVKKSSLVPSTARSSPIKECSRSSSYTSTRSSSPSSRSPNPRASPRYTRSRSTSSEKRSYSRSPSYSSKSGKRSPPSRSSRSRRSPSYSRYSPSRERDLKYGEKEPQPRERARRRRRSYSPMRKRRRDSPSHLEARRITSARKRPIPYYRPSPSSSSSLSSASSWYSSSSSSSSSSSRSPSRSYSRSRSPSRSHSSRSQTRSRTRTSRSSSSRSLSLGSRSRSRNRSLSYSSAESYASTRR
Assay: AP-MS nSR100 interaction partners from mouse N2A cells (Table 5)
Assay type: binding
Conditions: for AvgP (average of the SAINT scores) / MaxP (maximal SAINT score): bait Srrm4; for FoldChange between the prey Avg spectra of the bait and control purifications: bait Srrm4, 0.1 added to prevent division by 0; for AvgSpec (average number of spectra per replicate): bait Srrm4, 2 replicates; for Spectra (number of spectra for the prey in the purification of the bait): AP-MS; for SpecSum: bait Srrm4, sum of spectra over 2 replicates

[1] = bait Srrm4, biological replicate 1 (first number of the cell)
[2] = bait Srrm4, biological replicate 2 (second number of the cell)

From the text: By applying affinity purification coupled to mass-spectrometry (AP-MS), several interaction nSR100 partner proteins were detected that provide insight into mechanisms of post-translational regulation of nSR100 levels.

Substance	AvgP (average of the SAINT scores)	MaxP (maximal SAINT score)	FoldChange between the prey Avg spectra of the bait and control purifications	AvgSpec (average number of spectra per replicate)	Spectra (number of spectra for the prey in the purification of the bait) [1]	Spectra (number of spectra for the prey in the purification of the bait) [2]	SpecSum
Ap2a2	1	1	6.16	117	97	137	234
Ap2m1	1	1	9.12	36.5	31	42	73
Bub3	1	1	9.5	19	17	21	38
Cdc42bpb	1	1	90	9	6	12	18
Cdk1	1	1	14.25	57	47	67	114
Clk3	0.97	0.99	25	2.5	2	3	5
Csnk2b	0.99	1	8.5	8.5	10	7	17
Ddx39b	1	1	150	15	15|15	15|15	30
Gpatch8	0.95	0.95	20	2	2|2	2|2	4
Hspa2	1	1	390	39	41	37	78
Idh2	1	1	6.6	16.5	17	16	33
Magohb	1	1	21	10.5	10	11	21
Nudt21	0.97	1	4	14	16	12	28
Pcbp1	0.99	1	11.33	17	16	18	34
Pnn	1	1	25.33	38	33	43	76
Prpf8	1	1	3.36	60.5	63	58	121
Prrc2a	0.95	0.95	20	2	2|2	2|2	4
Rfc2	0.95	0.95	20	2	2|2	2|2	4
Snrnp70	1	1	5.1	51	48	54	102
Snrpc	0.99	1	11	5.5	5	6	11
Son	0.98	1	45	4.5	2	7	9
Srrm2	1	1	5.37	51	47	55	102
Wdr48	1	1	45	4.5	3	6	9
Ywhae	1	1	3.57	25	24	26	50
